Assay results: paper PMC4621360 (2015)

Molecular target: FSFG-K (single FSFG site) (Saccharomyces cerevisiae, UniProt P14907)
Assay: NMR

B1: Kap95 (protein)
chain: STAEFAQLLENSILSPDQNIRLTSETQLKKLSNDNFLQFAGLSSQVLIDENTKLEGRILAALTLKNELVSKDSVKTQQFAQRWITQVSPEAKNQIKTNALTALVSIEPRIANAAAQLIAAIADIELPHGAWPELMKIMVDNTGAEQPENVKRASLLALGYMCESADPQSQALVSSSNNILIAIVQGAQSTETSKAVRLAALNALADSLIFIKNNMEREGERNYLMQVVCEATQAEDIEVQAAAFGCLCKIMSLYYTFMKPYMEQALYALTIATMKSPNDKVASMTVEFWSTICEEEIDIAYELAQFPQSPLQSYNFALSSIKDVVPNLLNLLTRQNEDPEDDDWNVSMSAGACLQLFAQNCGNHILEPVLEFVEQNITADNWRNREAAVMAFGSIMDGPDKVQRTYYVHQALPSILNLMNDQSLQVKETTAWCIGRIADSVAESIDPQQHLPGVVQACLIGLQDHPKVATNCSWTIINLVEQLAEATPSPIYNFYPALVDGLIGAANRIDNEFNARASAFSALTTMVEYATDTVAETSASISTFVMDKLGQTMSVDENQLTLEDAQSLQELQSNILTVLAAVIRKSPSSVEPVADMLMGLFFRLLEKKDSAFIEDDVFYAISALAASLGKGFEKYLETFSPYLLKALNQVDSPVSITAVGFIADISNSLEEDFRRYSDAMMNVLAQMISNPNARRELKPAVLSVFGDIASNIGADFIPYLNDIMALCVAAQNTKPENGTLEALDYQIKVLEAVLDAYVGIVAGLHDKPEALFPYVGTIFQFIAQVAEDPQLYSEDATSRAAVGLIGDIAAMFPDGSIKQFYGQDWVIDYIKRTRSGQLFSQATKDTARWAREQQKRQLSL
B1 was tested, and the Kd was over 216 µM.
